Test results as given in publication doi:10.1101/466946 (bioRxiv, 2018).

Target: recombinant full-length CIN85 (human, UniProt Q96B97 1-665)
Test: SPR

recombinant full-length CIN85, sequence (Q96B97 whole entry): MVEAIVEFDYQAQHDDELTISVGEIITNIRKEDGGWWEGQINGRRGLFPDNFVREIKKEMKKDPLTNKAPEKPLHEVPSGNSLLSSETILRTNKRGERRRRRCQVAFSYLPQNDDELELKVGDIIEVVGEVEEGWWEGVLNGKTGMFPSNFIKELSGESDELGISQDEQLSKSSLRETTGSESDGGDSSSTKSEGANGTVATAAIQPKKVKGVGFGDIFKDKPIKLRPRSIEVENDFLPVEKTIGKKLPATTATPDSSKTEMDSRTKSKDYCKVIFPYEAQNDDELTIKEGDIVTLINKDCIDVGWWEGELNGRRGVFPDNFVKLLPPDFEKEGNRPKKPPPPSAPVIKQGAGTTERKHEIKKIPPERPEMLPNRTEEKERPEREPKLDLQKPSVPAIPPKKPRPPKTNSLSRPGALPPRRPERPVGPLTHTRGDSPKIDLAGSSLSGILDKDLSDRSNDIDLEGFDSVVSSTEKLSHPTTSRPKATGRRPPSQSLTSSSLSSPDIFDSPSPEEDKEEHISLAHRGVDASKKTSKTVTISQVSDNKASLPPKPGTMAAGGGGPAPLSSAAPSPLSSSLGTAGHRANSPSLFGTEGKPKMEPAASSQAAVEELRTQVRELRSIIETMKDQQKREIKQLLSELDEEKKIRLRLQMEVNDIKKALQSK

B1: recombinant PHD2 (enzyme, human, UniProt Q9GZT9 1-426, looked up)
chain: MANDSGGPGGPSPSERDRQYCELCGKMENLLRCSRCRSSFYCCKEHQRQDWKKHKLVCQGSEGALGHGVGPHQHSGPAPPAAVPPPRAGAREPRKAAARRDNASGDAAKGKVKAKPPADPAAAASPCRAAAGGQGSAVAAEAEPGKEEPPARSSLFQEKANLYPPSNTPGDALSPGGGLRPNGQTKPLPALKLALEYIVPCMNKHGICVVDDFLGKETGQQIGDEVRALHDTGKFTDGQLVSQKSDSSKDIRGDKITWIEGKEPGCETIGLLMSSMDDLIRHCNGKLGSYKINGRTKAMVACYPGNGTGYVRHVDNPNGDGRCVTCIYYLNKDWDAKVSGGILRIFPEGKAQFADIEPKFDRLLFFWSDRRNPHEVQPAYATRYAITVWYFDADERARAKVKYLTGEKGVRVELNKPSDSVGKDVF
Kd: 28.5 nM
